In article PMC10003956, “To the Understanding of Catalysis by D-Amino Acid Transaminases: A Case Study of the Enzyme from Aminobacterium colombiense” (Molecules, 2023):

Legend:
purified protein [1] = substrate: O=C(O)CCC(=O)C(=O)O; assay: purified protein; format: biochemical, Aminobacterium colombiense; settings: 500 mM D-alanine, 60 µM PLP, 50 mM CHES, pH 9.0, 60 °C
purified protein [2] = substrate: N[C@H](CCC(=O)O)C(=O)O; assay: purified protein; format: biochemical, Aminobacterium colombiense; settings: 500 mM pyruvate, 60 µM PLP, 50 mM K-phosphate, pH 8.0, 60 °C

B1: AmicoTA (Aminobacterium colombiense DSM 12261) (protein)
chain: MNLCYIDGKFLPLEEAKLPVTDLIIQRGVGVFETISTHSRRPLMLTPHLKRLEGSATASSIVMPATLDEMARIIREGIKKMGCETMVRPYITGGDSFGKDHLFSSSRYFVIFEEIRKPDPILYEKGVALHPINAERYLPSTKSINYMLSFTGQRDSKGAYEILYCPEGEIVEGSHSTFFLIKNGHLITAPTSRALSGTTRQIVLELARRGNIQVEERCPLLTELPEAEEAFITGTVKELLPVVRIGDQIIGNGVPGKLTKHLHQVYLSSIVEWLE
notes: N-terminal His6-TEV tag kept for kinetics, cut for crystals; E. coli Rosetta (DE3) pLysS
Question: B1 was tested. Which Km (purified protein [1]) did it give?
Answer: Its Km is 7.2 ± 0.8 mM.

Question: And the kcat (purified protein [1])?
Answer: The kcat was 9.9 ± 1.3 s⁻¹.

Question: What about the kcat/Km (purified protein [1]) of the same protein?
Answer: Its kcat/Km is 1380 ± 330 M⁻¹ s⁻¹.

Question: And the Km (purified protein [2])?
Answer: The Km was 5.2 ± 0.6 mM.

Question: What about the kcat (purified protein [2]) of the same protein?
Answer: The kcat was 1.4 ± 0.06 s⁻¹.

Question: And the kcat/Km (purified protein [2])?
Answer: Its kcat/Km is 270 ± 40 M⁻¹ s⁻¹.
